Binding Signal (fold over 6E7 parental antibody) data for seven molecules are collected here from patent publication US20260250381A1.

In experiment [1] the target is T1, human TREM2 (human) (UniProt Q9NZC2).
T1 sequence (looked up): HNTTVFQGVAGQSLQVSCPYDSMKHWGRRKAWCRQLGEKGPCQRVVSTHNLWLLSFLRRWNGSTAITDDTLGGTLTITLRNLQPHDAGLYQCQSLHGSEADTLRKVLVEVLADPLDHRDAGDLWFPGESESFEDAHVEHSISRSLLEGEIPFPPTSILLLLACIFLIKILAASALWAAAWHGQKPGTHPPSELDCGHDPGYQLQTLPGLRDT
As to the kind of experiment: 1st screen, 110 nM Ab.

Experiment [2] has as its target T1, human TREM2 (human). As to the kind of experiment: 2nd screen, 100 nM Ab.

B1: 6E7 variant V70 (antibody, V domains shown)
VH: EVQLVQSGAEVKKPGESLKISCKGSGYSFTSYWIAWVRQMPGKGLEWMGIIYPGDSDTRYSPSFQGQVTISADKSISTAYLQWSSLKASDTAMYFCARQRTFYYDSSDYFDYWGQGTLVTVSS
VL: DIQMTQSPSSVSASVGDRVTITCRASQGISSWLAWYQQKPGKAPKLLIYAAGSLQNGVPSRFSGSGSGTDFTLTISSLQPEDFATYFCQQADSFPRTFGQGTKLEIK
Turning to B1, the results for the Binding Signal (fold over 6E7 parental antibody) in the experiment with human TREM2 (human) [1] and in the experiment with human TREM2 (human) [2] were 0.79 fold and 0.84 fold, respectively.

B2: 6E7 variant V81 (antibody, V domains shown)
VH: EVQLVQSGAEVKKPGESLKISCKGSGYSFTSYWIAWVRQMPGKGLEWMGIIYPGDSDTRYSPSFQGQVTISADKSISTAYLQWSSLKASDTAMYFCARQRTFYYDSSDYFDYWGQGTLVTVSS
VL: DIQMTQSPSSVSASVGDRVTITCRASQGISSLLAWYQQKPGKAPKLLIYAASSLQNGVPSRFSGSGSGTDFTLTISSLQPEDFATYFCQQADSFPRTFGQGTKLEIK
Regarding B2, the results for the Binding Signal (fold over 6E7 parental antibody) with human TREM2 (human) [1] and with human TREM2 (human) [2] were 0.17 fold and 0.23 fold, respectively.

B3: 6E7 variant V79 (antibody, V domains shown)
VH: EVQLVQSGAEVKKPGESLKISCKGSGYSFTSYWIAWVRQMPGKGLEWMGIIYPGDSDTNYSPSFQGQVTISADKSISTAYLQWSSLKASDTAMYFCARQRTFYYDSSDYFDYWGQGTLVTVSS
VL: DIQMTQSPSSVSASVGDRVTITCRASQGISSWLAWYQQKPGKAPKLLIYAASSLQNGVPSRFSGSGSGTDFTLTISSLQPEDFATYFCQQADSFPRTFGQGTKLEIK
Regarding B3, the Binding Signal (fold over 6E7 parental antibody) with human TREM2 (human) [1] came to 0.7 fold; with human TREM2 (human) [2], 0.52 fold.

B4: 6E7 variant V78 (antibody, V domains shown)
VH: EVQLVQSGAEVKKPGESLKISCKGSGYRFTSYWIAWVRQMPGKGLEWMGIIYPGDSDTRYSPSFQGQVTISADKSISTAYLQWSSLKASDTAMYFCARQRTFYYDSSDYFDYWGQGTLVTVSS
VL: DIQMTQSPSSVSASVGDRVTITCRASQGISSWLAWYQQKPGKAPKLLIYAASSLQNGVPSRFSGSGSGTDFTLTISSLQPEDFATYFCQQADSFPRTFGQGTKLEIK
On to B4, for which the results for the Binding Signal (fold over 6E7 parental antibody) in the experiment with human TREM2 (human) [1] and with human TREM2 (human) [2] were 0.86 fold and 1.11 fold, respectively.

B5: 6E7 variant V80 (antibody, V domains shown)
VH: EVQLVQSGAEVKKPGESLKISCKGSGYSFTSYWIAWVRQMPGKGLEWMGIIYPGDSDTRYSPSFQGQVTISADKSISTAYLQWSSLKASDTAMYFCARQRNFYYDSSDYFDYWGQGTLVTVSS
VL: DIQMTQSPSSVSASVGDRVTITCRASQGISSWLAWYQQKPGKAPKLLIYAASSLQNGVPSRFSGSGSGTDFTLTISSLQPEDFATYFCQQADSFPRTFGQGTKLEIK
On to B5, for which the Binding Signal (fold over 6E7 parental antibody) was 0.59 fold in the experiment with human TREM2 (human) [1] and 0.5 fold with human TREM2 (human) [2].

B6: 6E7 variant V71 (antibody, V domains shown)
VH: EVQLVQSGAEVKKPGESLKISCKGSGYSFTSYWIAWVRQMPGKGLEWMGIIYPGDSDTRYSPSFQGQVTISADKSISTAYLQWSSLKASDTAMYFCARQRTFYYDSSDYFDYWGQGTLVTVSS
VL: DIQMTQSPSSVSASVGDRVTITCRASQGISSWLAWYQQKPGKAPKLLIYAASSLQNGVPSRFSGSGSGTDFTLTISSLQPEDFATYFCQQADSEPRTFGQGTKLEIK
Regarding B6, the Binding Signal (fold over 6E7 parental antibody) in the experiment with human TREM2 (human) [1] is 0.37 fold; with human TREM2 (human) [2] it was 0.48 fold.

B7: 6E7 variant V82 (antibody, V domains shown)
VH: EVQLVQSGAEVKKPGESLKISCKGSGYSFTSYWIAWVRQMPGKGLEWMGIIYPGDSDTRYSPSFQGQVTISADKSISTAYLQWSSLKASDTAMYFCARQRTFYYDSSDYFDYWGQGTLVTVSS
VL: DIQMTQSPSSVSASVGDRVTITCRASQGISSWLAWYQQKPGKAPKLLIYAGSSLQNGVPSRFSGSGSGTDFTLTISSLQPEDFATYFCQQADSFPRTFGQGTKLEIK
On to B7, for which the Binding Signal (fold over 6E7 parental antibody) turned out to be 0.3 fold with human TREM2 (human) [1] and 0.79 fold in the experiment with human TREM2 (human) [2].
